T1: Cas8a2 (recombinant, refolded) (Thermoproteus tenax, UniProt G4RJZ5 1-361)
T1 construct: Cas8a2 of the type I-A Cascade of Thermoproteus tenax Kra1 (genome FN869859)
T1 sequence (looked up): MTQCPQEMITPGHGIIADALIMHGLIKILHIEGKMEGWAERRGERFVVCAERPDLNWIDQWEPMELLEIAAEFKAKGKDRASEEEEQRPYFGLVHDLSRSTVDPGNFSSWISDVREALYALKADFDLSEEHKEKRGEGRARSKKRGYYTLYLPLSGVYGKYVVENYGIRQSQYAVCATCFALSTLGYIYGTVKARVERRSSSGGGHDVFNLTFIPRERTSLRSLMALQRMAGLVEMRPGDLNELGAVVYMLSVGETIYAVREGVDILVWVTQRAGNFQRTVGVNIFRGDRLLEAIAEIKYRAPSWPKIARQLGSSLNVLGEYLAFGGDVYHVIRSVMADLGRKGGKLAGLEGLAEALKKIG

T2: Cas5a (recombinant, refolded) (Thermoproteus tenax, UniProt G4RJZ2 1-226)
T2 construct: Cas5a of the type I-A Cascade of Thermoproteus tenax Kra1 (genome FN869859)
T2 sequence (looked up): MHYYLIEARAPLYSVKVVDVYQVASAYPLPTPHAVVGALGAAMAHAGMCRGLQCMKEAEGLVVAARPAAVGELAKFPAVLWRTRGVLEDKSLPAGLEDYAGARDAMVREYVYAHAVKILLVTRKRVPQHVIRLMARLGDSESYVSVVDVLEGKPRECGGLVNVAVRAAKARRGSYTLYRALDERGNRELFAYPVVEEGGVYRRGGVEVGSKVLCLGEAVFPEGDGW

T3: Cas7 purified via a His-SUMO-tagged fusion protein (Thermoproteus tenax, UniProt G4RJZ1 1-329)
T3 construct: Cas7 of the type I-A Cascade of Thermoproteus tenax Kra1 (genome FN869859), full-length protein; also called Cas7-SUMO; monomeric Cas7; source: E. coli BL21-Gold(DE3)Star pRARE, purified (Ni-NTA, SUMO protease, HiTrap Heparin, Superdex 75)
T3 sequence (looked up): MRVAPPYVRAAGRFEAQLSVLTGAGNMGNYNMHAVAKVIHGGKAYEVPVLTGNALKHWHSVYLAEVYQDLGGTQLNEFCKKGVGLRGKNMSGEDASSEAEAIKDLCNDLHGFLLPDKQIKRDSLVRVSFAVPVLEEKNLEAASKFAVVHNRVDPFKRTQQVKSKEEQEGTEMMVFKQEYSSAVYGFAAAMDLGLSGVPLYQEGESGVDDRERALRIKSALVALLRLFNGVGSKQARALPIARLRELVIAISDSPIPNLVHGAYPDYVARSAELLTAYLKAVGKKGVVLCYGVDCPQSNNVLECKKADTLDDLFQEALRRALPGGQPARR

T4: Cas7 (Thermoproteus tenax Kra1, UniProt G4RJZ1 1-329)
T4 sequence: T3 sequence (looked up)

B1: Csa5 (recombinant, soluble) (natural protein, Thermoproteus tenax, UniProt G4RJZ0 1-130, looked up)
chain: MESVQLKKEELVERAARSVRPAVHLEMAYDVLDELSRSPEKYPEQLAKLSRIVVKVLNDVEDELEHNPQNEELQKARNRLAAWGGYVAELAKRLEEADDRERIRMVRLFCAMALAPDKLTVELKKLLKGR
notes: Csa5, subunit of the type I-A Cascade of Thermoproteus tenax Kra1 (genome FN869859); source: E. coli Rosetta2(DE3)pLysS, csa5 in pET24a(+), purified (heat precipitation 90°C, Hi Screen Blue FF, MonoQ)

Columns and labels:
[1] = molecular target: T1, Cas8a2 (recombinant, refolded); test: SEC; six co-refolded Cascade subunits, incubated 30 min at 65°C, Superdex 200 10/300; fractions TCA-precipitated and analysed by SDS-PAGE; conditions: both partners purified
[2] = molecular target: T2, Cas5a (recombinant, refolded); test: as above; conditions: both partners purified
[3] = molecular target: T3, Cas7 purified via a His-SUMO-tagged …; test: as above; conditions: both partners purified
[4] = molecular target: T4, Cas7; test: EMSA; 4 uM Cas7, no competitor; nonspecific, similar shift with yeast RNA; 100 mM HEPES/KOH pH 7, 100 mM NaCl, 10 mM beta-mercaptoethanol, 50 ng yeast RNA, 30 min at 70 C (Cascade; 6% native TBE-PAGE); Cas7 alone without yeast RNA at 80 C, agarose gel; 2-4 nM labeled crRNA; conditions: protein: recombinant; tags: His-SUMO tag cleaved off; label: 5'-32P (EMSA); unlabeled in SEC; single strand

Binder | binding result [1] | binding result [2] | binding result [3] | binding result [4]
B1 | binds | binds | binds | 
AUUGAAAGCGUUGAUGCGGCCGCGACUGGCUGACUCAGCUAUUACGUUGA (ssRNA, 5'-OH from hammerhead cleavage before labeling) [crRNA 5.2] |  |  |  | binds

Reference: publication PMC4005679, “In vitro assembly and activity of an archaeal CRISPR-Cas type I-A Cascade interference complex” (Nucleic Acids Research, 2014)
